Experiments:
Rubisco activase (RCA) = test: Affinity isolation with LC-MS/MS; type: binding, Arabidopsis thaliana; details: pAtPNP-A bait vs pScr control
Procedure: Isolation of putative interactors of AtPNP-A was performed as described previously with minor modifications. For each sample, 5 g of plant material was used, no cross-linker was applied, the supernatant was incubated either with the N-terminally biotinylated pAtPNP-A or pScr (negative control) for 15 min. The protein extract mixture was incubated with Dynabeads M-280 (Life Technologies, Singapore) for 30 min. Eluted proteins were separated by SDS-PAGE (10% gels run for 15 min at 100V) and bands visualized with Coomassie Brilliant Blue (Figure S1). Bands were excised for trypsin in-gel digestion of proteins. MS analyses were performed on linear trap quadrupole (LTQ) Orbitrap Velos mass spectrometer (Thermo Scientific, Waltham, MA, USA) under conditions previously described. Scaffold version 4.11.1 (Proteome Software Inc.) was used to validate MS/MS based peptide and protein identification. […] Relative quantification of total spectrum counts of proteins identified with a confidence level of at least 99% at FDR < 0.1 in each sample containing pAtPNP-A or pScr (negative control) from three independent experiments was performed using Scaffold. […] The quantification file as well as the raw data are available via ProteomeXchange with identifier PXD023216, and the MS information is integrated in Supplementary Tables S1–S6.

plant leaves = test system: plant leaves; set-up: method as in 2 sources, ref 13, 20 = [13]; PMID 21550130; doi:10.1016/j.jplph.2011.03.011; 13. Ruzvidzo O. Donaldson L. Valentine A. Gehring C. The Arabidopsis thaliana natriuretic peptide AtPNP-A is a systemic regulator of leaf dark respiration and signals via the phloem J. Plant Physiol. || [20]; PMID 19015524; doi:10.1073/pnas.0810107105; 20. Gottig N. Garavaglia B.S. Daurelio L. Valentine A.J. Gehring C. Orellano E.G. Ottado J. Xanthomonas axonopodis pv. citri uses a plant natriuretic peptide-like protein to modify host homeostasis Pr ||| ref 20 = [20]; PMID 19015524; doi:10.1073/pnas.0810107105; 20. Gottig N. Garavaglia B.S. Daurelio L. Valentine A.J. Gehring C. Orellano E.G. Ottado J. Xanthomonas axonopodis pv. citri uses a plant natriuretic peptide-like protein to modify host homeostasis Pr; details: cited from earlier work
From the text: In the host–pathogens ‘arms race’, bacteria may acquire ‘eukaryotic-like’ genes from their hosts through horizontal gene transfer. […] Tobacco (Nicotiana tabacum) RCA gene is involved in resistance to herbivory, and its down-regulation impaired JA signaling and led to reduced defense against both generalist (Spodoptera littoralis) and specialist (Manduca sexta) herbivore elicitation ...

Pst DC3000 = test system: Pst DC3000; set-up: method as in PMID 32409317; details: exogenous application; cited from earlier work
From the text: Tobacco (Nicotiana tabacum) RCA gene is involved in resistance to herbivory, and its down-regulation impaired JA signaling and led to reduced defense against both generalist (Spodoptera littoralis) and specialist (Manduca sexta) herbivore elicitation ...

RCA = details: Yeast Two-Hybrid, AtPNP-A lacking the signal peptide; cited from earlier work

B1: AtPNP-A: Arabidopsis thaliana PNP, termed AtPNP-A (At2g18660; Q9ZV52) (protein)
chain: AQGKAVYYDPPYTRSACYGTQRETLVVGVKNNLWQNGRACGRRYRVRCIGATYNFDRACTGRTVDVKVVDFCREPCNGDLNLSRDAFRVIANTDAGNIRVVYTPI
modifications: left off: His6, N-terminal, kept
For B1, which “Identification of RCA as interactor” value (Rubisco activase (RCA)) is on record?
The value was “identified with high confidence”.

And the “Leaf photosynthetic rates and apparent photon yield” value (plant leaves)?
The value was “modulate leaf photosynthetic rates and apparent photon yield”.

What about the “Leaf dark respiration rates” value (plant leaves; treatment of plant leaves) of the same molecule?
Its value is “triggers increase in leaf dark respiration rates”.

And the “Leaf photosynthetic rates and efficiency of light utilization” value (plant leaves; treatment of plant leaves)?
The value was “regulates leaf photosynthetic rates and efficiency of light utilization during photosynthetic CO2 fixation”.

And the Leaf transpiration rates (plant leaves; treatment of plant leaves)?
The Leaf transpiration rates was “higher leaf transpiration rates”.

And the “Starch in guard cell chloroplasts” value (plant leaves; treatment of plant leaves)?
The value was “induces starch reduction in guard cell chloroplasts”.

What about the “Stomatal conductance and stomatal opening” value (plant leaves; treatment of plant leaves) of the same molecule?
Its value is “increases stomatal conductance and stomatal opening”.

And the “Susceptibility to Pst DC3000” value (Pst DC3000)?
Its value is “enhanced susceptibility to Pst DC3000”.

What about the “Interaction with RCA” value (RCA) of the same molecule?
The value was “strong interactor”.

Source: paper PMC7823470, “Arabidopsis Plant Natriuretic Peptide Is a Novel Interactor of Rubisco Activase” (Life, 2020)
